A word on the Kd: it is the concentration at which binding is half-saturated.

From paper PMC4211651 come the findings set out here.

The test deals with native porcine cardiac thin filaments (F-actin plus regulatory proteins, troponin, and tropomyosin) (porcine) (UniProt P42639). The test is described as follows: co-sedimentation.

As to “mouse cardiac myosin binding protein-C N-terminal domains C0C1 (domain or fragment)”, the Kd stood at 2200 nM. As for “human cardiac myosin binding protein-C N-terminal domains C0C1 (domain or fragment)”, the Kd stood at 2200 nM.
